Results as given in PMC3799427 (Nucleic Acids Research, 2013).

Legend:
[1] = biological target: T1, DNA polymerase III α subunit (Escherichia coli, UniProt P10443 1-1160); assay: single molecule DNA stretching
[2] = biological target: T1, DNA polymerase III α subunit; assay: other fluorescence titration

T1 sequence (P10443 whole entry): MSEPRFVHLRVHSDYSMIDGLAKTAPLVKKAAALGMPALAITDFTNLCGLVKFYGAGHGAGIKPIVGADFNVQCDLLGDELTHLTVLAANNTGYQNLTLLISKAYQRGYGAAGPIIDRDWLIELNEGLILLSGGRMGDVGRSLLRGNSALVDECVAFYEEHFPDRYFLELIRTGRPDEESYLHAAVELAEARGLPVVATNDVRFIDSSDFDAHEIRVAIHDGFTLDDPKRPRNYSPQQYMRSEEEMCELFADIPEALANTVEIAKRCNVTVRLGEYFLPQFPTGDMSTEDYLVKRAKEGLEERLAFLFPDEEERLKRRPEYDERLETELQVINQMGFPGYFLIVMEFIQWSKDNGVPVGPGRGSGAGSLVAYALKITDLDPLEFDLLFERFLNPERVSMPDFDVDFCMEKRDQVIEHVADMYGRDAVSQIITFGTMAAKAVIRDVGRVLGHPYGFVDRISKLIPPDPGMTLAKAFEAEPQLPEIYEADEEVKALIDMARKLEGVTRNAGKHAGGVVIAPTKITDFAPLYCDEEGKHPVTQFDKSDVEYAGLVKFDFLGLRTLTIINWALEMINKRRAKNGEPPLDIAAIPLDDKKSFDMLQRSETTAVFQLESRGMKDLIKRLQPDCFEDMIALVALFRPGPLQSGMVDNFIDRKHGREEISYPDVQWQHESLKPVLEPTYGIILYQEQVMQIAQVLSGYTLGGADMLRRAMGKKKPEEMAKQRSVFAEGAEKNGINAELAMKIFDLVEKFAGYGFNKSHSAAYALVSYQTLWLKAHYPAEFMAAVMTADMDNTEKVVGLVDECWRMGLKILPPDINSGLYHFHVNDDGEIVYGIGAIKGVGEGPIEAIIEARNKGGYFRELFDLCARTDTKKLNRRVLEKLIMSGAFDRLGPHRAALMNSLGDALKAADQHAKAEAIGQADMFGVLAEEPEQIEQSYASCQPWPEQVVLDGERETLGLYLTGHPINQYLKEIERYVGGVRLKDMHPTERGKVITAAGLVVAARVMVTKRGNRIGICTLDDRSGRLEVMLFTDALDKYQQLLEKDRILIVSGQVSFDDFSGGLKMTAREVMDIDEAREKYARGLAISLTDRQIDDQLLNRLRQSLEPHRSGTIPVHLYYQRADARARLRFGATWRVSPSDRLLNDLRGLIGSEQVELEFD

Binder | Kd [1] | Kd [2]
UmuD, wild type (natural protein, Escherichia coli, UniProt P0AG11 1-139, looked up) MLFIKPADLREIVTFPLFSDLVQCGFPSPAADYVEQRIDLNQLLIQHPSATYFVKASGDSMIDGGISDGDLLIVDSAITASHGDIVIAAVDGEFTVKKLQLRPTVQLIPMNSAYSPITISSEDTLDVFGVVIHVVKAMR | 340 ± 103 nM | 
UmuD D91K (natural protein, Escherichia coli, UniProt P0AG11 1-139, looked up) MLFIKPADLREIVTFPLFSDLVQCGFPSPAADYVEQRIDLNQLLIQHPSATYFVKASGDSMIDGGISDGDLLIVDSAITASHGDIVIAAVKGEFTVKKLQLRPTVQLIPMNSAYSPITISSEDTLDVFGVVIHVVKAMR |  | 18.1 µM
UmuD D91K-G92K (natural protein, Escherichia coli, UniProt P0AG11 1-139, looked up) MLFIKPADLREIVTFPLFSDLVQCGFPSPAADYVEQRIDLNQLLIQHPSATYFVKASGDSMIDGGISDGDLLIVDSAITASHGDIVIAAVKKEFTVKKLQLRPTVQLIPMNSAYSPITISSEDTLDVFGVVIHVVKAMR |  | 32.5 µM
UmuD G92K (natural protein, Escherichia coli, UniProt P0AG11 1-139, looked up) MLFIKPADLREIVTFPLFSDLVQCGFPSPAADYVEQRIDLNQLLIQHPSATYFVKASGDSMIDGGISDGDLLIVDSAITASHGDIVIAAVDKEFTVKKLQLRPTVQLIPMNSAYSPITISSEDTLDVFGVVIHVVKAMR |  | 1.3 µM
